Reference: patent US11360100B2, “Methods and compositions useful in detecting proteins” (OREGON HEALTH & SCIENCE UNIVERSITY, priority 2016, dated 2022)

Assay: Membrane permeance of probe peptides in living cells
Assay type: cell-based
Protocol: The disclosed tag sets preferentially label cell surfaces and are membrane impermeant in living cells, which is of particular use in labeling cell-surface receptors (i.e., TfR1 and EGFR) and more particularly of use in monitoring trafficking and endocytosis.
The disclosed methods were tested in transfected human osteosarcoma cells (U-2 OS). A pDisplay vector was used to target CoilZ-EGFP and untagged EGFP to the cell surface. This construct includes a C-terminal fusion to the transmembrane domain of the platelet derived growth factor receptor. As expected, both CoilZ-EGFP and untagged EGFP localized to the cell surface, and green fluorescence was observed within 24 h of transfection. Then the cells were blocked with 6% BSA and 10% FBS for 30 minutes at 37° C. and then contacted with an AF647-conjugated CoilY probe (CoilY-AF647), 30 min at 4° C. Cells were fixed before imaging by confocal fluorescence microscopy. The probe peptides are membrane impermeant; only cell-surface EGFP was accessible to CoilY-AF647 for labeling. Colocalization of green fluorescent CoilZ-EGFP with CoilY-AF647 was observed.
VIP probe peptides are live cell impermeant. This makes them ideal for imaging and tracking receptor internalization. […]
VIPER labeling was compared to that of standard fluorescence labeling techniques, namely a fluorescent protein fusion to mCherry and antibody labeling.

Substance: CoilR: coiled-coil peptide, SEQ ID NO: 1, designed from RR12EE345L (LEIRAAFLRQRNTALRTEVAELEQEVQRLENEVSQYETRYGPL)
- cell membrane permeance: cell-membrane impermeance
